Kd data for one substance are collected here from article PMC11633101.

The target in this experiment is bovine NECTIN1 with 6×his tag, purified from CHO cells (bovine). Briefly: SPR; Biacore 8K, CM5 chip, 25°C, single-cycle mode, PBS; NECTIN1 and CD46 captured on the chip, serial dilutions of BVDV E2 injected; regeneration with glycine pH 2.5.

“BVDV E2 protein with 6×his tag, purified from 293F cells (from UniProt P19711 693-1066) (natural protein)” gave a Kd of 3.47 pM.
